This assay has as its target His-REV7 (human, UniProt Q9UI95 1-211). The assay can be described thus: pull-down.

Sequence of His-REV7 (Q9UI95 whole entry): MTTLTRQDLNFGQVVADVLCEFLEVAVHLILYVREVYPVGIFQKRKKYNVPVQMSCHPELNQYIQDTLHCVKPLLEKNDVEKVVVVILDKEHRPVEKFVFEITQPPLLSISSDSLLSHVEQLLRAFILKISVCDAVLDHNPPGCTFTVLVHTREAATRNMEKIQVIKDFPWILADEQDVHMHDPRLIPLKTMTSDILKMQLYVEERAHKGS

B1: GST-ATRIP 203–307 (WT) (domain or fragment)
chain: RTKLQTSERANKLAAPSVSHVSPRKNPSVVIKPEACSPQFGKTSFPTKESFSANMSLPHPCQTESGYKPLVGREDSKPHSLRGDSIKQEEAQKSFVDSWRQRSNT
On to B1, for which the binding result is given as “binds”.

B2: GST-ATRIP 203–348 (domain or fragment)
chain: RTKLQTSERANKLAAPSVSHVSPRKNPSVVIKPEACSPQFGKTSFPTKESFSANMSLPHPCQTESGYKPLVGREDSKPHSLRGDSIKQEEAQKSFVDSWRQRSNTQGSILINLLLKQPLIPGSSLSLCHLLSSSSESPAGTPLQPP
Turning to B2, the binding result is “binds”.
